Key:
[1] = molecular target: His8-cytb5R (soluble form of human cytochrome b5 reductase with N-terminal His8 tag) (human) (UniProt P00387); experiment: cell-based or functional assay
[2] = molecular target: His8-cytb5-sd (human cytochrome b5 soluble domain with N-terminal His8 tag) (UniProt P00167)
[3] = molecular target: His8-MBP-fl-cytb5 fusion protein

Sequence of UniProt P00167 (P00167 1-97): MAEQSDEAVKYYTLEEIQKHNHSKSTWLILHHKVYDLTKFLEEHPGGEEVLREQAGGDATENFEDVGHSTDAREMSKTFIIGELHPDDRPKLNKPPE
Sequence of UniProt P00387 (P00387 24-301): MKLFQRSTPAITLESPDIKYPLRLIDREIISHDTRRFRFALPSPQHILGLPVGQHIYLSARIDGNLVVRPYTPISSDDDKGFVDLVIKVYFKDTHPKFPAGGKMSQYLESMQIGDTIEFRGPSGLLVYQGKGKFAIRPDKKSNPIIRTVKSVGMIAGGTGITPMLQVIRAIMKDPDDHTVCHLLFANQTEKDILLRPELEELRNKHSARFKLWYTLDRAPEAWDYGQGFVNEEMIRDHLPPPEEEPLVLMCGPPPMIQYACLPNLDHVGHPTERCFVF

## His8-cytb5-sd (human cytochrome b5 soluble domain with N-terminal His8 tag) (from UniProt P00167 1-97)
[1]
  V/K, µM^-1 s^-1 (steady-state reduction of cytb5 by His8-cytb5R with NADH): 5e+06 M⁻¹ s⁻¹

## His8-cytb5R (soluble form of human cytochrome b5 reductase with N-terminal His8 tag)
[2]
  Km, µM (steady-state reduction of cytb5 by His8-cytb5R with NADH): 5 µM
  Vmax, s^-1 (steady-state reduction of cytb5 by His8-cytb5R with NADH, absorbance at 413 nm): 25 s⁻¹

B1: tobacco etch virus (TEV) protease (protein)
chain: GESLFKGPRDYNPISSTICHLTNESDGHTTSLYGIGFGPFIITNKHLFRRNNGTLLVQSLHGVFKVKNTTTLQQHLIDGRDMIIIRMPKDFPPFPQKLKFREPQREERICLVTTNFQTKSMSSMVSDTSCTFPSSDGIFWKHWIQTKDGQCGSPLVSTRDGFIVGIHSASNFTNTNNYFTSVPKNFMELLTNQEAQQWVSGWRLNADSVLWGGHKVFMSKPEEPFQPVKEATQLMNE
[3]
  site-specific proteolysis of the linker (SDS-PAGE): a satisfactory reaction was obtained at a ratio of His8-MBP-fl-cytb5 to TEV protease of 10:1 (reaction completed in 30 min)

Source: patent US20100330649A1
